Experiments:
Psy3-Csm2-I40A/I83A = molecular target: T1, Psy3-Csm2-I40A/I83A (Saccharomyces cerevisiae, UniProt Q12318;P40465 1-242;1-213, I40A;I83A;Csm2:); assay: EMSA
T1 sequence 1: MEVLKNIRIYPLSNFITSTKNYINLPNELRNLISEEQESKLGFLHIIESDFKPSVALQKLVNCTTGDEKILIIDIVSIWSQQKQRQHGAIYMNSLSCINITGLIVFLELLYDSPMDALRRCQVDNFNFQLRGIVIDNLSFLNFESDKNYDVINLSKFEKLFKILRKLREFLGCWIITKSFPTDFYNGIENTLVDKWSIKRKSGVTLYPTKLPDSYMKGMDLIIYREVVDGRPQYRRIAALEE
T1 sequence 2: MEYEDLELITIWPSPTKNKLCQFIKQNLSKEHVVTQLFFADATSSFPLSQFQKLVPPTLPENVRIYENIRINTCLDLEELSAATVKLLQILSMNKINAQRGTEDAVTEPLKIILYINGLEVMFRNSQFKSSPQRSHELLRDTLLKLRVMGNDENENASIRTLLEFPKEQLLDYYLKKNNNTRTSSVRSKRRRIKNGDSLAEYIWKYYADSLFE

Psy3-Csm2-I83A/L87A = molecular target: T2, Psy3-Csm2-I83A/L87A (Saccharomyces cerevisiae, UniProt Q12318;P40465 1-242;1-213, I83A;L87A;Csm2:); assay: EMSA
T2 sequence 1: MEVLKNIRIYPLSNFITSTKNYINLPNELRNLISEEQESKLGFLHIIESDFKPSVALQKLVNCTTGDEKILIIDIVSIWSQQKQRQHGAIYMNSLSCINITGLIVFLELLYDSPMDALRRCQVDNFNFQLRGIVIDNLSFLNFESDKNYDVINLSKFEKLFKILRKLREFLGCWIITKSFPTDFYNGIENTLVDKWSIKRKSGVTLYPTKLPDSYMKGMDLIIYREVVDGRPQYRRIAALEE
T2 sequence 2: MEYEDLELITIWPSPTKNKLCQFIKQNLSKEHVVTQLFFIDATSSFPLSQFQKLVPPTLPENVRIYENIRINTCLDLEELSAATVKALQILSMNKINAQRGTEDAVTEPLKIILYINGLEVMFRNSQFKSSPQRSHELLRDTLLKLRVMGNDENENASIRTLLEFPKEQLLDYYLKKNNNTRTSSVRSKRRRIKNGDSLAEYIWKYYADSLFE

Psy3-Csm2 = molecular target: T3, Psy3-Csm2 (Saccharomyces cerevisiae, UniProt Q12318;P40465 1-242;1-213); assay: EMSA
T3 sequence 1: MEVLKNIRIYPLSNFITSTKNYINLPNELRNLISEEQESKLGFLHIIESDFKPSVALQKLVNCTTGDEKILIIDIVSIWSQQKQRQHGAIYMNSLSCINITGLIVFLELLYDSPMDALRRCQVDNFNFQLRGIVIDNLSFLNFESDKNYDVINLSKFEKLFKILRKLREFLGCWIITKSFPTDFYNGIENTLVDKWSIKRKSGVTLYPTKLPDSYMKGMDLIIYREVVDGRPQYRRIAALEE
T3 sequence 2: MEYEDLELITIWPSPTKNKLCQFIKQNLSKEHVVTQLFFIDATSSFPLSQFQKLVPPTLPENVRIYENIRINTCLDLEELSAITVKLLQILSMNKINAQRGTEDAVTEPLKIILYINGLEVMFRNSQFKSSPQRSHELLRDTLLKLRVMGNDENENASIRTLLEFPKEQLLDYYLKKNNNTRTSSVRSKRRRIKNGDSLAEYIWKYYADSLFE

Rad51;Psy3-Csm2 = Rad51;Psy3-Csm2 (Saccharomyces cerevisiae;Saccharomyces …, UniProt P25454;Q12318;P40465 1-400;1-242;1-213, |); assay: EMSA and supershift
Rad51;Psy3-Csm2, sequence (P25454 whole entry, one chain of several): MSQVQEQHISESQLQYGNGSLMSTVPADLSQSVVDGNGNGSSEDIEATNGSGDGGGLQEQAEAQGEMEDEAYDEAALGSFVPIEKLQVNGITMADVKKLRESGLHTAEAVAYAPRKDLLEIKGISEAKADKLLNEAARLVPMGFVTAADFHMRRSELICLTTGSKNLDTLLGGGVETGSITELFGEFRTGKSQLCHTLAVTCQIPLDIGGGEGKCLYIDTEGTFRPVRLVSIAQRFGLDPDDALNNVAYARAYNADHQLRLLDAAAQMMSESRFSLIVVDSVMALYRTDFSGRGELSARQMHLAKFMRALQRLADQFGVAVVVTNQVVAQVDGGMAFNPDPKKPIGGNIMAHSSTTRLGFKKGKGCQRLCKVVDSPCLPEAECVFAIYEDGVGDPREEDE

Measured: binding result

B1: 60-mer oligo-ssDNA (ssDNA)
DNA: TGGGTGAACCTGCAGGTGGGCAAAGATGTCCTAGCAATCCATTGTCTATGACGTCAAGCT
binds: all assays above
